Data from paper PMC4964276.

How the values were obtained:
[1] = target: AKAP18β 30-mer peptide, Val60 to aspartate (human); assay: peptide or protein array
[2] = target: AKAP18β 30-mer peptide, Ala67 to aspartate (human); assay: peptide or protein array
[3] = target: AKAP18β 30-mer peptide, Ala63 to aspartate (human); assay: peptide or protein array
[4] = target: AKAP18β 30-mer peptide, Val64 to aspartate (human); assay: peptide or protein array
PKA RIIα (Homo sapiens) = PKA RIIα (Homo sapiens) (UniProt P13861); assay: SPR; details: cited from earlier work
Chain of PKA RIIα (Homo sapiens) (P13861 2-404): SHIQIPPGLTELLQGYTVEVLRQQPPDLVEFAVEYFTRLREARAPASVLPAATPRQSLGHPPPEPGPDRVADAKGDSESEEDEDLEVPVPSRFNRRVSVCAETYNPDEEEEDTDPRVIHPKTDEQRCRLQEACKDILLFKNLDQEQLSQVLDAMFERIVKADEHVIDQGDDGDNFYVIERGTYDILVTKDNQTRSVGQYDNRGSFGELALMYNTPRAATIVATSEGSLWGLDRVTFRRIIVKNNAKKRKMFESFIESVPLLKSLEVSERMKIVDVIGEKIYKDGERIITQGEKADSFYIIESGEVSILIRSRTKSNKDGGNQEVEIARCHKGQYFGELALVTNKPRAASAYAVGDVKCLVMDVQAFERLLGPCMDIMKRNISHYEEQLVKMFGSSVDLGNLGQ

Chain of RIIα subunits, recombinant, radioactively labelled (32P) (P13861 whole entry): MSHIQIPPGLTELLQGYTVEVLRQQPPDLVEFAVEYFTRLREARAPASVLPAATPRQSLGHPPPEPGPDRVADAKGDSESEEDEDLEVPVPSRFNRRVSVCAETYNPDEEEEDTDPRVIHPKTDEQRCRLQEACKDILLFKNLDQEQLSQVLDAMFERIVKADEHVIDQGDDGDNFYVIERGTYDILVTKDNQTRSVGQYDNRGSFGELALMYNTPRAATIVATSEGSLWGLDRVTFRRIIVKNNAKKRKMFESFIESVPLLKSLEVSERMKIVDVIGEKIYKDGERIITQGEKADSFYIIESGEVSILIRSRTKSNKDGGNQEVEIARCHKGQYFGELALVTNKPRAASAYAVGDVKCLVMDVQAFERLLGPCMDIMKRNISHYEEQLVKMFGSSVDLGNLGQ
Chain of AKAP18δ PKA-binding domain peptide PKA-binding domain (25 aa) (Q9P0M2 295-319, stated change not applied): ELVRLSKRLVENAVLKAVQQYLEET

RIIα subunits, recombinant, radioactively labelled (32P) (from UniProt P13861 1-404) (natural protein)
reduction of binding (% against the wild-type peptide) [1]: > 60%
reduction of binding (% against the wild-type peptide) [2]: > 60%
reduction of binding (% against the wild-type peptide) [3]: > 60%
reduction of binding (% against the wild-type peptide) [4]: > 60%

AKAP18δ PKA-binding domain peptide PKA-binding domain (25 aa) (from UniProt Q9P0M2)
Kd (PKA RIIα (Homo sapiens)): 0.4 nM
